± gives the uncertainty stated by the source.

The series in a line: amyloid nucleation score (Sup35N fusion, yeast selection) (log enrichment); library NNK1; higher = more nucleation; inactive = no reads after selection. The procedure, abridged: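 Output and input plasmid inserts were sequenced by Illumina after psi-negative yeast carrying Sup35N fused to peptides of 20 random codons had been induced 24 hours with 100 μM copper sulfate and grown 7 days at 30°C on medium lacking adenine and uracil. The nucleation score is the DiMSum log enrichment of output over input reads, centred on the mode score of non-aggregating sequences. Sequences with under 100 input reads were excluded.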
Substance VEPLCGTRFACRLNAFKTTG returned an amyloid nucleation score of -0.097 ± 0.39.
In turn, VEVSWAAQST came in with an amyloid nucleation score of 0.506 ± 0.91.
Take VEWASRDTHWRSLSLIIYLG: the amyloid nucleation score result was “inactive”.
VFAMPYYSCGVLWNRGNW: the amyloid nucleation score came to 0.566 ± 0.48.
For VFDAKGLNAHFNEVNVVYIR, the amyloid nucleation score came to 4.77 ± 0.062.
Turning to VFFGVVQLICDGVKEIFPNL, the amyloid nucleation score is 4 ± 0.1.
Substance VFFSYINCLRF yielded an amyloid nucleation score of 0.218 ± 0.45.
VFGHIGIDRGI had an amyloid nucleation score of 2.74 ± 0.22.
On to VFGSCWYLYFVYLPTNRFRM, for which the amyloid nucleation score was -0.134 ± 0.3.
VFGVPVTCGGRPVFLIKVVG returned an amyloid nucleation score of -0.794 ± 1.4.
Substance VFHVAKSRRVTHPSILISL displayed an amyloid nucleation score of 1.53 ± 0.74.
Consider VFLMLEVCLMV, for which the amyloid nucleation score was found to be 0.362 ± 0.72.
Turning to VFLSIGTERMILLIVWHCLN, the amyloid nucleation score is -0.34 ± 0.57.
Turning to VFLVGMFLIRRVAVN, the amyloid nucleation score is 0.72 ± 0.87.
VFNHTVPQSIRFYTYNRSSR registered an amyloid nucleation score of 3.87 ± 0.078.
Substance VFRFRGCF came in with an amyloid nucleation score of 1.62 ± 0.38.
VFTIWSMFFIVRFNLWWKCA displayed an amyloid nucleation score of 0.081 ± 0.49.
Then VFVVDIFLFVMNCPYDPLSR, with 2.6 ± 0.066; and VFYLCFTSQYYLSAGTVNAW, with 4.99 ± 0.064; and VFYVFWYFRLCI, with 0.035 ± 0.2.
With VGFEGHS, the amyloid nucleation score is -0.58 ± 0.6.
In turn, VGFYWNGWTTKGCWDNSWVL displayed an amyloid nucleation score of 0.382 ± 0.55.
On to VGHSEIKMTMTRLADLGVCE, for which the amyloid nucleation score amounted to 0.612 ± 0.62.
Take VGHYGRETHLCSWCQIANGA: the amyloid nucleation score result is “inactive”.
The value for VGLERSWGEAKAVNMQRHGS was 0.346 ± 0.81; that for VGLGYYNSSK was 0.91 ± 0.51; that for VGPAANHIGHIVRWCRPGGP was 0.33 ± 0.5.
VGPRGSGPWGGVCLCGCSKE had an amyloid nucleation score of 1.11 ± 0.51.
As for VGRHALGTSRGKRL, the amyloid nucleation score was -0.307 ± 0.67.
As for VGSRLQRHGDGTGSLGLSWC, the amyloid nucleation score entry is “inactive”.
As for VGSTLYHLRKDMSTLSPGMY, the amyloid nucleation score turned out to be 0.012 ± 0.34.
Consider VGVGFIHNLGTLEIQVT, for which the amyloid nucleation score was -0.359 ± 0.36.
With VGVHRHSSWWEFAYCASRQ, the amyloid nucleation score is -0.537 ± 0.71.
Then VGWLRFIRWYDPRLENWRTG, with 0.235 ± 0.78; and VGWSMWNMIRMMVVPVAGPG, with 0.253 ± 0.35; and VHLSGFVSLNLTVVSIRCIA, with 2.06 ± 0.31.
The value for VHNCMVFLLKFIDSRHFIVI was -0.292 ± 1.6; that for VHSGTKEKGF was 1.05 ± 0.54; that for VHSVLKWLRWDSIPCIVLIR was -0.487 ± 0.32.
Turning to VHVFSCLCPLLGSMIFLWMV, the amyloid nucleation score was -0.871 ± 0.68.
Substance VICSHLVSITYYLY had an amyloid nucleation score of 3.59 ± 0.057.
Substance VIHRIIDVLF had an amyloid nucleation score of -0.06 ± 0.57.
Then VIHTRGNWSKRHVMIWISES, with -0.016 ± 1.2.
VIKDFNDNYTGFRHYSKILI came in with an amyloid nucleation score of -0.634 ± 1.7.
In turn, VIKFWSQ came in with an amyloid nucleation score of 0.536 ± 0.77.
The value for VILECNVAGVGELAQCQCAG was 0.986 ± 0.59.
VILFYSR returned an amyloid nucleation score of 4.49 ± 0.11.
Then VILRIIILYCLYHVWISGM, with 0.177 ± 0.34.
As to VINCNWKFSFFFALVNEGGV, the amyloid nucleation score was found to be 6.554 ± 0.048.
As for VIQRTYCGRVLNLHALI, the amyloid nucleation score turned out to be 0.245 ± 0.57.
For the substance VISGSDVLRYPRYSNAAFRT, the amyloid nucleation score entry was “inactive”.
VISINSVLACVYTIVMR: the amyloid nucleation score was -0.1 ± 0.73.
For the substance VISMTKMLAWFTGLVYGYYG, the amyloid nucleation score is -0.21 ± 0.35.
Turning to VITNHDDE, the amyloid nucleation score turned out to be 0.51 ± 0.47.
With VITTNLTCFALSYAAVFISK, the amyloid nucleation score turned out to be 3.69 ± 0.078.
In the case of VIVCIEAAAETYSTGQSLDA, the amyloid nucleation score is -0.15 ± 0.3.
VKGSGGGWFERNSGAPRKVF came in with an amyloid nucleation score of 1.03 ± 0.38.
With VKKLQVA, the amyloid nucleation score turned out to be 1.11 ± 0.74.
The value for VKLDIVFLMVFGPLCSESPF was 1.83 ± 0.24; that for VKTINFISQLSCWCKRPFRK was 8.673 ± 0.06.
As for VKVIKLRHSLGTFFCSAQLQ, the amyloid nucleation score result was “inactive”.
Substance VKYLVIL returned an amyloid nucleation score of -0.618 ± 0.47.
For the substance VLCAGLPWYTELVRFSYWAD, the amyloid nucleation score is -0.642 ± 0.56.
For VLDVVVCSSWGDLKRNLRPC, the amyloid nucleation score amounted to 3.29 ± 0.11.
Consider VLGRITAIFSVCGLVAVRDN, for which the amyloid nucleation score worked out at 5.63 ± 0.076.
For the substance VLIGIWLHLGHFEPALSM, the amyloid nucleation score is -0.133 ± 0.53.
In turn, VLLGELIL displayed an amyloid nucleation score of 0.434 ± 0.56.
As to VLLRKVKRLNRYHMSTGGL, the amyloid nucleation score entry was “inactive”.
VLRTGVH registered an amyloid nucleation score of 1.25 ± 0.66.
VLSAGVCFMTRVRSVFDGVH: the amyloid nucleation score worked out at 2.14 ± 0.24.
VLSRSMH registered an amyloid nucleation score of -0.206 ± 1.7.
Consider VLVRAWTLDCCLLFVMMVVS, for which the amyloid nucleation score is 0.558 ± 0.46.
As to VLWPLTISLWC, the amyloid nucleation score is -0.236 ± 0.51.
Regarding VLYIGYYCQKSMEVLVTRSR, the amyloid nucleation score was 1.06 ± 0.69.
Substance VMADYVDNSHMVVMQTCVCM returned an amyloid nucleation score of 7.667 ± 0.061.
For the substance VMAPERST, the amyloid nucleation score was -0.905 ± 1.6.
Turning to VMESTRNFSKVMSCSLFRFR, the amyloid nucleation score is -0.684 ± 0.62.
For the substance VMFYSLHFCGVEDFFTGAER, the amyloid nucleation score came to 0.834 ± 0.57.
VMHLWLVYCHTTVS yielded an amyloid nucleation score of 0.755 ± 0.73.
On to VMMRTSSARMGLLLDVTCGN, for which the amyloid nucleation score came out at 0.058 ± 0.61.
Regarding VMRVAYNDT, the amyloid nucleation score stood at 0.416 ± 0.36.
The value for VMSKSNPIAV was 0.24 ± 0.54.
Take VMSSMMWYSYHMFHPYNAFE: the amyloid nucleation score came to 1.28 ± 0.79.
On to VMVRTCACFIR, for which the amyloid nucleation score came to 0.883 ± 0.51.
As to VNDLSCIGVGGDAKDNREGN, the amyloid nucleation score was determined as 1.34 ± 0.48.
For VNGWARSMGGFLSCNSQRFG, the amyloid nucleation score is -0.221 ± 0.65.
VNLNVFLRR came in with an amyloid nucleation score of 0.059 ± 0.45.
The value for VNPYMMLAQY was 0.748 ± 0.38; that for VNSKFMGKY was 0.192 ± 0.39; that for VNVFRNLFVTTDLWLSSTQN was -0.437 ± 0.66.
On to VNVITGWCAQELVVRAILEI, for which the amyloid nucleation score is 0.341 ± 0.4.
Consider VPENLVKMSEV, for which the amyloid nucleation score amounted to 0.279 ± 0.71.
Regarding VPMLDLGKVYNRSACP, the amyloid nucleation score entry is “inactive”.
VPNVGYI showed an amyloid nucleation score of 0.369 ± 0.54.
Substance VPTSSFGGFVYVGVRVMCS came in with an amyloid nucleation score of -0.487 ± 0.8.
In the case of VPYQCDKTKHFVRKVLILGA, the amyloid nucleation score is 1.81 ± 0.58.
Substance VQAAGYITLATVALWSTSMQ displayed an amyloid nucleation score of 2.02 ± 0.31.
For the substance VQGLIQVSVYDRVAGCWHRI, the amyloid nucleation score is -0.83 ± 0.66.
The value for VQGYKVRLSGRNFGCNCASK was -1.85 ± 1.8; that for VQGYTYGGCDGFMEWLGKLI was -0.295 ± 0.61; that for VQIFEKLVQRSSVRQSENLK was 0.037 ± 0.93.
VQISQETFYNWLFVPAVSVP yielded an amyloid nucleation score of -0.282 ± 0.38.
For VQIWAAELMTDRRK, the amyloid nucleation score came out at 0.436 ± 1.2.
Regarding VQPDDLARTGRLQLVLLVWN, the amyloid nucleation score is -0.883 ± 0.92.
The value for VRCLGWVDHERVRDLCIHSG was -0.414 ± 0.31; that for VRCLLRYLLLESPQFINV was 1.7 ± 0.36.
Consider VRDSGRIGMFKMGKV, for which the amyloid nucleation score is -0.824 ± 0.88.
Substance VRFFAPPWTWWLC displayed an amyloid nucleation score of 0.087 ± 0.44.
Then VRKSVSTFT, with 0.055 ± 0.37; and VRLCLVLLESDLLTGTVGIG, with -1.02 ± 1.2; and VRLFV, with 2.14 ± 0.65.
For the substance VRLNQLDNSLAVRSATNPGA, the amyloid nucleation score is 0.524 ± 0.65.
For VRMDHIRTKPPLHAIVAPQP, the amyloid nucleation score was -1.68 ± 2.4.
Then VRMVQEMFRRRTLEELAMGA, with 0.447 ± 0.68; and VRRGTVFAVGTCYIGRWFAV, with 1.21 ± 0.97; and VRRIAWSNGWCRGIGGRSVL, with -0.179 ± 0.39.
Turning to VRRQFVPKSYLCCESYFNEV, the amyloid nucleation score was determined as 0.32 ± 0.56.
The value for VRSYDRMFYRDPQDLL was -0.077 ± 0.22; that for VRTLLWSS was -1.55 ± 2.4.
As for VRYMWFAAGTREVTWSAFFM, the amyloid nucleation score is -0.014 ± 0.32.
The substance VSANICNRIVDGHFSLFYLN registered an amyloid nucleation score of -0.73 ± 0.37.
Substance VSETAFLNTNKWGPKCLMWN returned an amyloid nucleation score of -1.42 ± 1.
Regarding VSGAKLAFN, the amyloid nucleation score is -0.46 ± 1.6.
Then VSGLAGPEM, with 0.412 ± 0.56; and VSGTVLTIEYCPY, with 0.844 ± 0.27.
Then VSIFPFLTCLVVNLMLGGPV, with 4.26 ± 0.11; and VSLLSVWFDTHYIWSITGVD, with -0.247 ± 0.45; and VSLMCVALYKQISTRI, with 0.102 ± 0.51.
The substance VSLRAAWNLC registered an amyloid nucleation score of 0.606 ± 0.71.
The substance VSMRN gave an amyloid nucleation score of 0.305 ± 0.21.
The value for VSPDYMSYCIGVYLINLISV was 0.354 ± 0.59; that for VSPMWVGYSRTSKLW was 0.036 ± 0.26; that for VSQCS was 0.238 ± 0.54.
The substance VSRNFVTKDSQLNGLSN yielded an amyloid nucleation score of -1.52 ± 1.4.
On to VSRNIWYRWGNLLAVVKM, for which the amyloid nucleation score was -0.025 ± 0.57.
As to VSRTCIQYCDDDDRSKSRSS, the amyloid nucleation score is 0.253 ± 0.23.
VSTIFHIGFVLKFRDYRESE yielded an amyloid nucleation score of 2.93 ± 0.18.
In the case of VSVFLGSGHRRARGW, the amyloid nucleation score was -0.482 ± 0.47.
The substance VSYFVHIC gave an amyloid nucleation score of 0.145 ± 0.56.
In the case of VSYYCAQALVLRIPEEWATE, the amyloid nucleation score is -0.168 ± 1.3.
Then VTLGHHDRSCFYEDSVQTRD, with 0.832 ± 0.49.

The values above are taken from the supplement of paper PMC12042874.
